In the supplement of paper PMC5998384:

Tests used:
HeLa Kyoto [1] = assay: solubility change mitosis vs G1/S (difference of NP-40 vs SDS log2 ratios) (log2 ratio difference); higher = more soluble in mitosis
HeLa Kyoto [2] = assay: thermal stability score vs G1/S (z-score of summed log2 fold changes over temperatures); higher = more thermally stable than in G1/S
HeLa Kyoto [3] = assay: melting temperature (median over replicates), in situ; higher = more thermally stable
HeLa Kyoto [4] = assay: solubility in G1/S (NP-40 vs SDS abundance) (log2 ratio); higher = more soluble; details: cell cycle stage: G1/S
[5] = cell cycle stage: early G1 (4.5 h after nocodazole release)
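For melting temperature (median over replicates), in situ in this document: HeLa Kyoto cells synchronized by double thymidine or nocodazole block, proteins quantified by TMT10plex mass spectrometry, three independent biological replicates.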
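For solubility change mitosis vs G1/S (difference of NP-40 vs SDS log2 ratios) in this document: synchronized HeLa Kyoto cells (double thymidine block for G1/S, nocodazole release for mitosis), protein amounts in NP-40 versus SDS lysates quantified by mass spectrometry, three biological replicates.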
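For solubility in G1/S (NP-40 vs SDS abundance) in this document: HeLa Kyoto cells arrested at G1/S by double thymidine block, proteins quantified by TMT10plex mass spectrometry in mild NP-40 versus SDS extracts, three biological replicates.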
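For thermal stability score vs G1/S (z-score of summed log2 fold changes over temperatures) in this document: synchronized HeLa Kyoto cells, proteins quantified by TMT10plex mass spectrometry, three biological replicates, mitosis taken 0.5 h after nocodazole release, G1/S directly after double thymidine block.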

CYCS, sequence (chain, as listed by the source): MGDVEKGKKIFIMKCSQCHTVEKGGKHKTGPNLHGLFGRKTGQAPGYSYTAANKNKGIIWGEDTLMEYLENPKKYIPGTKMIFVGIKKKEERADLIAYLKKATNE

## MAAAAAAAVAGVGRGGGGAEPRQERSRARGWAGVERSEGRRMEPGEELEEEGSPGGREDGFTAEHLAAEAMAADMDPWLVFDARTTPATELDAWLAKYPPSQVTRYGDPGSPNSEPVGWIAVYGQGYSPNSGDVQGLQAAWEALQTSGRPITPGTLRQLAITHHVLSGKWLMHLAPGFKLDHAWAGIARAVVEGQLQVAKVSPRAKEGGRQVICVYTDDFTDRLGVLEADSAIRAAGIKCLLTYKPDVYTYLGIYRANRWHLCPTLYESRFQLGGSARGSRVLDRANNVELT [C11ORF68]
HeLa Kyoto [1]
  solubility change mitosis (log2): -0.0653
HeLa Kyoto [2]; [5]
  thermal stability score: 0.634
HeLa Kyoto [2]; cell cycle stage: mitosis
  thermal stability score: -0.663
HeLa Kyoto [3]; cell cycle stage: G1/S
  melting temperature: 51.6 °C
HeLa Kyoto [3]; cell cycle stage: mitosis
  melting temperature: 51.9 °C
HeLa Kyoto [4]
  solubility in G1/S (log2): 0.585

## MSGLRVYSTSVTGSREIKSQQSEVTRILDGKRIQYQLVDISQDNALRDEMRALAGNPKATPPQIVNGDQYCGDYELFVEAVEQNTLQEFLKLA [SH3BGRL3]
HeLa Kyoto [1]
  solubility change mitosis (log2): -0.132
HeLa Kyoto [2]; [5]
  thermal stability score: -2.26
HeLa Kyoto [2]; cell cycle stage: mitosis
  thermal stability score: -3.11
HeLa Kyoto [3]; cell cycle stage: G1/S
  melting temperature: 54.2 °C
HeLa Kyoto [3]; cell cycle stage: mitosis
  melting temperature: 52.6 °C
HeLa Kyoto [4]
  solubility in G1/S (log2): -0.259

## CYCS
HeLa Kyoto [1]
  solubility change mitosis (log2): 0.139
HeLa Kyoto [2]; [5]
  thermal stability score: -1.79
HeLa Kyoto [2]; cell cycle stage: mitosis
  thermal stability score: -2.79
HeLa Kyoto [3]; cell cycle stage: G1/S
  melting temperature: 57.1 °C
HeLa Kyoto [3]; cell cycle stage: mitosis
  melting temperature: 52.2 °C
HeLa Kyoto [4]
  solubility in G1/S (log2): -0.131

## HECTD1
HeLa Kyoto [1]
  solubility change mitosis (log2): -0.16
HeLa Kyoto [2]; [5]
  thermal stability score: 0.479
HeLa Kyoto [2]; cell cycle stage: mitosis
  thermal stability score: -0.0167
HeLa Kyoto [3]; cell cycle stage: G1/S
  melting temperature: 50.4 °C
HeLa Kyoto [3]; cell cycle stage: mitosis
  melting temperature: 50.4 °C
HeLa Kyoto [4]
  solubility in G1/S (log2): -0.212

## METILEQQRRYHEEKERLMDVMAKEMLTKKSTLRDQINSDHRTRAMQDRYMEVSGNLRDLYDDKDGLRKEELNAISGPNEFAEFYNRLKQIKEFHRKHPNEICVPMSVEFEELLKARENPSEEAQNLVEFTDEEGYGRYLDLHDCYLKYINLKASEKLDYITYLSIFDQLFDIPKERKNAEYKRYLEMLLEYLQDYTDRVKPLQDQNELFGKIQAEFEKKWENGTFPGWPKETSSALTHAGAHLDLSAFSSWEELASLGLDRLKSALLALGLKCGGTLEERAQRLFSTKGKSLESLDTSLFAKNPKSKGTKRDTERNKDIAFLEAQIYEYVEILGEQRHLTHENVQRKQARTGEEREEEEEEQISESESEDEENEIIYNPKNLPLGWDGKPIPYWLYKLHGLNINYNCEICGNYTYRGPKAFQRHFAEWRHAHGMRCLGIPNTAHFANVTQIEDAVSLWAKLKLQKASERWQPDTEEEYEDSSGNVVNKKTYEDLKRQGLL [SF3A3]
HeLa Kyoto [1]
  solubility change mitosis (log2): 0.129
HeLa Kyoto [2]; [5]
  thermal stability score: 0.0461
HeLa Kyoto [2]; cell cycle stage: mitosis
  thermal stability score: 0.769
HeLa Kyoto [3]; cell cycle stage: G1/S
  melting temperature: 49.8 °C
HeLa Kyoto [3]; cell cycle stage: mitosis
  melting temperature: 48.1 °C
HeLa Kyoto [4]
  solubility in G1/S (log2): 0.132

## MTQQPLRGVTSLRFNQDQSCFCCAMETGVRIYNVEPLMEKGHLDHEQVGSMGLVEMLHRSNLLALVGGGSSPKFSEISVLIWDDAREGKDSKEKLVLEFTFTKPVLSVRMRHDKIVIVLKNRIYVYSFPDNPRKLFEFDTRDNPKGLCDLCPSLEKQLLVFPGHKCGSLQLVDLASTKPGTSSAPFTINAHQSDIACVSLNQPGTVVASASQKGTLIRLFDTQSKEKLVELRRGTDPATLYCINFSHDSSFLCASSDKGTVHIFALKDTRLNRRSALARVGKVGPMIGQYVDSQWSLASFTVPAESACICAFGRNTSKNVNSVIAICVDGTFHKYVFTPDGNCNREAFDVYLDICDDDDF [WDR45]
HeLa Kyoto [1]
  solubility change mitosis (log2): -0.0635
HeLa Kyoto [2]; [5]
  thermal stability score: -0.724
HeLa Kyoto [2]; cell cycle stage: mitosis
  thermal stability score: -0.704
HeLa Kyoto [3]; cell cycle stage: G1/S
  melting temperature: 53.4 °C
HeLa Kyoto [3]; cell cycle stage: mitosis
  melting temperature: 53.6 °C
HeLa Kyoto [4]
  solubility in G1/S (log2): -0.26

## MLTLQTWLVQALFIFLTTESTGELLDPCGYISPESPVVQLHSNFTAVCVLKEKCMDYFHVNANYIVWKTNHFTIPKEQYTIINRTASSVTFTDIASLNIQLTCNILTFGQLEQNVYGITIISGLPPEKPKNLSCIVNEGKKMRCEWDGGRETHLETNFTLKSEWATHKFADCKAKRDTPTSCTVDYSTVYFVNIEVWVEAENALGKVTSDHINFDPVYKVKPNPPHNLSVINSEELSSILKLTWTNPSIKSVIILKYNIQYRTKDASTWSQIPPEDTASTRSSFTVQDLKPFTEYVFRIRCMKEDGKGYWSDWSEEASGITYEDRPSKAPSFWYKIDPSHTQGYRTVQLVWKTLPPFEANGKILDYEVTLTRWKSHLQNYTVNATKLTVNLTNDRYLATLTVRNLVGKSDAAVLTIPACDFQATHPVMDLKAFPKDNMLWVEWTTPRESVKKYILEWCVLSDKAPCITDWQQEDGTVHRTYLRGNLAESKCYLITVTPVYADGPGSPESIKAYLKQAPPSKGPTVRTKKVGKNEAVLEWDQLPVDVQNGFIRNYTIFYRTIIGNETAVNVDSSHTEYTLSSLTSDTLYMVRMAAYTDEGGKDGPEFTFTTPKFAQGEIEAIVVPVCLAFLLTTLLGVLFCFNKRDLIKKHIWPNVPDPSKSHIAQWSPHTPPRHNFNSKDQMYSDGNFTDVSVVEIEANDKKPFPEDLKSLDLFKKEKINTEGHSSGIGGSSCMSSSRPSISSSDENESSQNTSSTVQYSTVVHSGYRHQVPSVQVFSRSESTQPLLDSEERPEDLQLVDHVDGGDGILPRQQYFKQNCSQHESSPDISHFERSKQVSSVNEEDFVRLKQQISDHISQSCGSGQMKMFQEVSAADAFGPGTEGQVERFETVGMEAATDEGMPKSYLPQTVRQGGYMPQ [IL6ST]
HeLa Kyoto [1]
  solubility change mitosis (log2): 0.0736
HeLa Kyoto [2]; [5]
  thermal stability score: -2.55
HeLa Kyoto [2]; cell cycle stage: mitosis
  thermal stability score: -3.18
HeLa Kyoto [3]; cell cycle stage: G1/S
  melting temperature: 53.9 °C
HeLa Kyoto [3]; cell cycle stage: mitosis
  melting temperature: 56.2 °C
HeLa Kyoto [4]
  solubility in G1/S (log2): 0.0822

## MPKKKTGARKKAENRREREKQLRASRSTIDLAKHPCNASMECDKCQRRQKNRAFCYFCNSVQKLPICAQCGKTKCMMKSSDCVIKHAGVYSTGLAMVGAICDFCEAWVCHGRKCLSTHACACPLTDAECVECERGVWDHGGRIFSCSFCHNFLCEDDQFEHQASCQVLEAETFKCVSCNRLGQHSCLRCKACFCDDHTRSKVFKQEKGKQPPCPKCGHETQETKDLSMSTRSLKFGRQTGGEEGDGASGYDAYWKNLSSDKYGDTSYHDEEEDEYEAEDDEEEEDEGRKDSDTESSDLFTNLNLGRTYASGYAHYEEQEN [ZNF330]
HeLa Kyoto [1]
  solubility change mitosis (log2): -0.0758
HeLa Kyoto [2]; [5]
  thermal stability score: 3.84
HeLa Kyoto [2]; cell cycle stage: mitosis
  thermal stability score: 0.774
HeLa Kyoto [3]; cell cycle stage: G1/S
  melting temperature: 50.4 °C
HeLa Kyoto [3]; cell cycle stage: mitosis
  melting temperature: 50.9 °C
HeLa Kyoto [4]
  solubility in G1/S (log2): -0.262

## MSSLIRRVISTAKAPGAIGPYSQAVLVDRTIYISGQIGMDPSSGQLVSGGVAEEAKQALKNMGEILKAAGCDFTNVVKTTVLLADINDFNTVNEIYKQYFKSNFPARAAYQVAALPKGSRIEIEAVAIQGPLTTASL [HRSP12]
HeLa Kyoto [1]
  solubility change mitosis (log2): 0.158
HeLa Kyoto [2]; [5]
  thermal stability score: -1.03
HeLa Kyoto [2]; cell cycle stage: mitosis
  thermal stability score: -1.85
HeLa Kyoto [3]; cell cycle stage: G1/S
  melting temperature: 55.4 °C
HeLa Kyoto [3]; cell cycle stage: mitosis
  melting temperature: 55 °C
HeLa Kyoto [4]
  solubility in G1/S (log2): 0.213

## MLPGLAAAAAHRCSWSSLCRLRLRCRAAACNPSDRQEWQNLVTFGSFSNMVPCSHPYIGTLSQVKLYSTNVQKEGQGSQTLRVEKVPSFETAEGIGTELKAPLKQEPLQVRVKAVLKKREYGSKYTQNNFITGVRAINEFCLKSSDLEQLRKIRRRSPHEDTESFTVYLRSDVEAKSLEVWGSPEALAREKKLRKEAEIEYRERLFRNQKILREYRDFLGNTKPRSRTASVFFKGPGKVVMVAICINGLNCFFKFLAWIYTGSASMFSEAIHSLSDTCNQGLLALGISKSVQTPDPSHPYGFSNMRYISSLISGVGIFMMGAGLSWYHGVMGLLHPQPIESLLWAYCILAGSLVSEGATLLVAVNELRRNARAKGMSFYKYVMESRDPSTNVILLEDTAAVLGVIIAATCMGLTSITGNPLYDSLGSLGVGTLLGMVSAFLIYTNTEALLGRSIQPEQVQRLTELLENDPSVRAIHDVKATDLGLGKVRFKAEVDFDGRVVTRSYLEKQDFDQMLQEIQEVKTPEELETFMLKHGENIIDTLGAEVDRLEKELKKRNPEVRHVDLEIL [SLC30A9]
HeLa Kyoto [1]
  solubility change mitosis (log2): -0.0502
HeLa Kyoto [2]; [5]
  thermal stability score: -0.0363
HeLa Kyoto [2]; cell cycle stage: mitosis
  thermal stability score: -0.00857
HeLa Kyoto [3]; cell cycle stage: G1/S
  melting temperature: 51.1 °C
HeLa Kyoto [3]; cell cycle stage: mitosis
  melting temperature: 51.9 °C
HeLa Kyoto [4]
  solubility in G1/S (log2): -0.0134

## MAAVDIRDNLLGISWVDSSWIPILNSGSVLDYFSERSNPFYDRTCNNEVVKMQRLTLEHLNQMVGIEYILLHAQEPILFIIRKQQRQSPAQVIPLADYYIIAGVIYQAPDLGSVINSRVLTAVHGIQSAFDEAMSYCRYHPSKGYWWHFKDHEEQDKVRPKAKRKEEPSSIFQRQRVDALLLDLRQKFPPKFVQLKPGEKPVPVDQTKKEAEPIPETVKPEEKETTKNVQQTVSAKGPPEKRMRLQ [MED6]
HeLa Kyoto [1]
  solubility change mitosis (log2): 0.222
HeLa Kyoto [2]; [5]
  thermal stability score: -0.569
HeLa Kyoto [2]; cell cycle stage: mitosis
  thermal stability score: -0.431
HeLa Kyoto [3]; cell cycle stage: G1/S
  melting temperature: 47.9 °C
HeLa Kyoto [3]; cell cycle stage: mitosis
  melting temperature: 50 °C
HeLa Kyoto [4]
  solubility in G1/S (log2): 0.404

## MEAAAVTVTRSATRRRRRQLQGLAAPEAGTQEEQEDQEPRPRRRRPGRSIKDEEEETVFREVVSFSPDPLPVRYYDKDTTKPISFYLSSLEELLAWKPRLEDGFNVALEPLACRQPPLSSQRPRTLLCHDMMGGYLDDRFIQGSVVQTPYAFYHWQCIDVFVYFSHHTVTIPPVGWTNTAHRHGVCVLGTFITEWNEGGRLCEAFLAGDERSYQAVADRLVQITQFFRFDGWLINIENSLSLAAVGNMPPFLRYLTTQLHRQVPGGLVLWYDSVVQSGQLKWQDELNQHNRVFFDSCDGFFTNYNWREEHLERMLGQAGERRADVYVGVDVFARGNVVGGRFDTDKSLELIRKHGFSVALFAPGWVYECLEKKDFFQNQDKFWGRLERYLPTHSICSLPFVTSFCLGMGARRVCYGQEEAVGPWYHLSAQEIQPLFGEHRLGGDGRGWVRTHCCLEDAWHGGSSLLVRGVIPPEVGNVAVRLFSLQAPVPPKIYLSMVYKLEGPTDVTVALELTTGDAGSCHIGGISVLNAETSSRHSLRPLRVPPTKLARWVGRCGRQLSGGWVQHCYEVSLRGCLLLDLLVCFSRPPGSREEESFTCRLGEIQVVDAASLLAPLPQVQAVTISHIRWQPSASEREGPPALLQLSCTLHWSFLLSQVRCFRIHCWGGMSDDSPGRELPRPEMPMFLGLAFATQYRIVDLLVEAAGPGQDRRMEFLVEPVPKEGFRVPQAEWGRAVLLYSAPA [ENGASE]
HeLa Kyoto [1]
  solubility change mitosis (log2): -0.0912
HeLa Kyoto [2]; [5]
  thermal stability score: 0.438
HeLa Kyoto [2]; cell cycle stage: mitosis
  thermal stability score: -0.925
HeLa Kyoto [3]; cell cycle stage: G1/S
  melting temperature: 53.6 °C
HeLa Kyoto [3]; cell cycle stage: mitosis
  melting temperature: 53.4 °C
HeLa Kyoto [4]
  solubility in G1/S (log2): -0.179
